Assay: Substrate specificity of recombinant LA2167-ZIS (GPP, NPP, EE-FPP or 2Z,6Z-FPP), GC-MS of products
Assay type: biochemical, Solanum habrochaites
Details: for substrate giving zingiberene (substrate specificity): no substrate, GPP, NPP, 2Z,6Z-FPP and E,E-FPP compared
Procedure: The synthetic gene was excised from the pUC57 cloning vector by digestion with BamHI and SalI and ligated into the pHIS8 vector previously linearized by digestion with the same enzymes. Recombinant clones were transformed into E. coli BL21 cells. A 5-mL log-phase culture of E. coli BL21 cells containing the expression vector was induced by addition of IPTG to a final concentration of 0.1 mM. The induced cells were incubated with agitation at 25° C. for 16 h, and then harvested by centrifugation at 10,000 g for 15 min. The cell pellet was resuspended in 1 mL extraction buffer (50 mM HEPES pH 8, 5% glycerol, 100 mM KCl, 7.5 mM MgCl2 containing 1 mM dithiothreitol (DTT)) prior to sonication. Soluble proteins were harvested after centrifugation at 10,000 g for 20 min. The supernatant was used for subsequent enzyme assays. Two micrograms of soluble protein were mixed with 10 μM of substrate (GPP, NPP, EE-FPP or 2Z,6Z-FPP (Echelon Biosciences Inc., Salt Lake City, Utah)) in a 2-mL glass vial. Reactions were allowed to proceed for 30 min at 30° C., and the glass vial headspace was collected with a 65 μm polydimethylsiloxane-divinylbenzene solid-phase microextraction fiber (Supelco, Bellefonte, Pa.). After 5 min of exposure at 42° C., the SPME fiber was retracted and transferred to the GC injector port for desorption at 200° C. onto the GC column for 3 min. The terpenes were separated on a DB5 column (10 m length, inner diameter and 0.25 um). The GC-MS analysis was performed as described previously […] et al. (Plant Physiol 153, 1212-1223 (2010)).

B1: LA2167-ZIS: sesquiterpene (zingiberene) synthase of Solanum habrochaites accession LA2167, SEQ ID NO:2; codon-optimized form lacking chloroplast transit sequence SEQ ID NO:4 (protein)
chain: MIVGYRSTIITLSHPKLGNGKTISSNAIFRRSCRVRCSHSTPSSMNGFEDARDRIRESFGKVELSPSSYDTAWVAMVPSKHSLNEPCFPQCLDWIIENQREDGSWGLNPSHPLLLKDSLSSTLACLLALTKWRVGDEQIKRGLGFIETQSWAIDNKDQISPLGFEIIFPSMIKSAEKLNLNLAINKRDSTIKRALQNEFTRNIEYMSEGFGELCDWKEIIKLHQRQNGSLFDSPATTAAALIYHQHDKKCYEYLNSILQQHKNWVPTMYPTKIHSLLCLVDTLQNLGVHRHFKSEIKKALDEIYRLWQQKNEEIFSNVTHCAMAFRLLRISYYDVSSDELAEFVDEEHFFATSGKYTSHVEILELHKASQLAIDHEKDDILDKINNWTRTFMEQKLLNNGFIDRMSKKEVELALRNFYIISDLAENRRYIKSYEENNFKILKAAYRSPNINNKDLFIFSIRDFELCQAQHQEELQQLKRWFEDCRLDQLGLSEQFISASYLCAIPIVPGPELSDARLVYAKYVMLLTIVDDHFESFASTDECLNIIELVERWDDYASVGYKSERVKVLFSMFYKSIEEIATIAEIKQGRSVKNHLINLWLKVMKLMLMERVEWCSGKTIPRIEEYLYVSSITFGSRLIPLTTQYFIGIKISKDLLESDEIYGLCNFTGIVLRLLNDLQDSKREQKEGSINLVTLLMKSISEEEAIMKMKEILEMKRRELFKMVLVQKKGSQLPQLCKEIFWRTCKWAHFTYSQTDRYRFPEEMENHIDEVFYKPLNH
modifications: Solanum habrochaites
product synthesis with geranyl diphosphate (GPP) as substrate (GPP supplied as substrate): failed to synthesize any products
product synthesis with neryl diphosphate (NPP) as substrate (NPP supplied as substrate): failed to synthesize any products
substrate giving zingiberene (substrate specificity): only observed when 2Z,6Z-farnesyl diphosphate is used as substrate
substrate giving zingiberene (substrate specificity) (listed as zingiberene synthase from accession LA2167): only uses 2Z,6Z-farnesyl diphosphate

— US9315793B2, “Enzymes that synthesize zingiberene” (Board of Trustees of Michigan State University, priority 2011, dated 2016)
